In patent publication US20150344570A1 (published 2015):

T1: FcγRIIb extracellular domain with C-terminal His tag (human, UniProt P31994 43-217)
T1 construct: extracellular domain; expressed in FreeStyle293 cells; analyte in Biacore; also called FcgRIIb; 2b
T1 sequence (looked up): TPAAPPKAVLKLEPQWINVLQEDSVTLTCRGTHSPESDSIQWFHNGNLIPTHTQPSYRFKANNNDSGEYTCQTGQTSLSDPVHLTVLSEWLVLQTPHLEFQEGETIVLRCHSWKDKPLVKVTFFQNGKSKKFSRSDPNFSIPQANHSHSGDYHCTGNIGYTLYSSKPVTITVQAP

B1: GpH7-A5/GpH7-B3 variant K326_12R/GpL16-k0 (antibody, human IgG1, kappa)
heavy 1: not shown
heavy 2: not shown
light: DIVMTQSPLSLPVTPGEPASISCQASESLVHSNRNTYLHWYLQKPGQSPQLLIYKVSNRFSGVPDRFSGSGSGTDFTLKISRVEAEDVGVYYCSQNTHVPPTFGQGTKVEIERTVAAPSVFIFPPSDEQLKSGTASVVCLLNNFYPREAKVQWKVDNALQSGNSQESVTEQDSKDSTYSLSSTLTLSKADYEKHKVYACEVTHQGLSSPVTKSFNRGEC
notes: He Ab; IgG1, mutation in one H chain
B2: GpH7-A5/GpH7-B3 variant Q295_15Y/GpL16-k0 (antibody, human IgG1, kappa)
heavy 1: not shown
heavy 2: not shown
light: B1 light
notes: also called He Ab Q295_15Y
B3: GpH7-A5/GpH7-B3 variant Y296_01G/GpL16-k0 (antibody, human IgG1, kappa)
heavy 1: not shown
heavy 2: not shown
light: B1 light
notes: as for B1
B4: GpH7-A5/GpH7-B3 variant S324_02A/GpL16-k0 (antibody, human IgG1, kappa)
heavy 1: not shown
heavy 2: not shown
light: B1 light
notes: as for B1
B5: GpH7-A5/GpH7-B3 variant S298_04F/GpL16-k0 (antibody, human IgG1, kappa)
heavy 1: not shown
heavy 2: not shown
light: B1 light
notes: as for B1
B6: GpH7-A5/GpH7-B3 variant Y296_13S/GpL16-k0 (antibody, human IgG1, kappa)
heavy 1: not shown
heavy 2: not shown
light: B1 light
notes: as for B1
B7: GpH7-A5/GpH7-B3 variant Y296_06M/GpL16-k0 (antibody, human IgG1, kappa)
heavy 1: not shown
heavy 2: not shown
light: B1 light
notes: as for B1
B8: GpH7-A5/GpH7-B3 variant P271_15Y/GpL16-k0 (antibody, human IgG1, kappa)
heavy 1: not shown
heavy 2: not shown
light: B1 light
notes: also called He Ab P271_15Y
B9: GpH7-A5/GpH7-B3 variant Y296_12R/GpL16-k0 (antibody, human IgG1, kappa)
heavy 1: not shown
heavy 2: not shown
light: B1 light
notes: as for B1
B10: GpH7-A5/GpH7-B3 variant Q295_09D/GpL16-k0 (antibody, human IgG1, kappa)
heavy 1: not shown
heavy 2: not shown
light: B1 light
notes: also called He Ab Q295_09D
B11: GpH7-A5/GpH7-B3 variant Q295_18N/GpL16-k0 (antibody, human IgG1, kappa)
heavy 1: not shown
heavy 2: not shown
light: B1 light
notes: as for B1
B12: GpH7-A5/GpH7-B3 variant Y296_04F/GpL16-k0 (antibody, human IgG1, kappa)
heavy 1: not shown
heavy 2: not shown
light: B1 light
notes: as for B1
B13: GpH7-A5/GpH7-B3 variant Y296_02A/GpL16-k0 (antibody, human IgG1, kappa)
heavy 1: not shown
heavy 2: not shown
light: B1 light
notes: as for B1
B14: GpH7-A5/GpH7-B3 variant Q295_16H/GpL16-k0 (antibody, human IgG1, kappa)
heavy 1: not shown
heavy 2: not shown
light: B1 light
notes: also called He Ab Q295_16H
B15: GpH7-A5/GpH7-B3 variant P271_14T/GpL16-k0 (antibody, human IgG1, kappa)
heavy 1: not shown
heavy 2: not shown
light: B1 light
notes: also called He Ab P271_14T
B16: GpH7-A5/GpH7-B3 variant P329_01G/GpL16-k0 (antibody, human IgG1, kappa)
heavy 1: not shown
heavy 2: not shown
light: B1 light
notes: also called He Ab P329_01G
B17: GpH7-A5/GpH7-B3 variant S324_03V/GpL16-k0 (antibody, human IgG1, kappa)
heavy 1: not shown
heavy 2: not shown
light: B1 light
notes: as for B1
B18: GpH7-A5/GpH7-B3 variant S298_07I/GpL16-k0 (antibody, human IgG1, kappa)
heavy 1: not shown
heavy 2: not shown
light: B1 light
notes: as for B1
B19: GpH7-A5/GpH7-B3 variant S298_10E/GpL16-k0 (antibody, human IgG1, kappa)
heavy 1: not shown
heavy 2: not shown
light: B1 light
notes: as for B1
B20: GpH7-A5/GpH7-B3 variant S298_15Y/GpL16-k0 (antibody, human IgG1, kappa)
heavy 1: not shown
heavy 2: not shown
light: B1 light
notes: as for B1
B21: GpH7-A5/GpH7-B3 variant Q295_15Y/GpL16-k0 (antibody, human IgG1, kappa)
heavy 1: not shown
heavy 2: not shown
light: B1 light
notes: as for B1
B22: GpH7-A5/GpH7-B3 variant Q295_11K/GpL16-k0 (antibody, human IgG1, kappa)
heavy 1: not shown
heavy 2: not shown
light: B1 light
notes: as for B1
B23: GpH7-A5/GpH7-B3 variant P329_02A/GpL16-k0 (antibody, human IgG1, kappa)
heavy 1: not shown
heavy 2: not shown
light: B1 light
notes: also called He Ab P329_02A
B24: GpH7-A5/GpH7-B3 variant S298_12R/GpL16-k0 (antibody, human IgG1, kappa)
heavy 1: not shown
heavy 2: not shown
light: B1 light
notes: as for B1

Legend:
[1] = target: T2, FcγRIa extracellular domain with C-terminal His tag (human, UniProt P12314 16-292); experiment: SPR (Biacore), captured antibody, FcγR as analyte; relative binding
T2 construct: extracellular domain; expressed in FreeStyle293 cells; analyte in Biacore; also called FcgRI; 1a
T2 sequence (P12314 16-292): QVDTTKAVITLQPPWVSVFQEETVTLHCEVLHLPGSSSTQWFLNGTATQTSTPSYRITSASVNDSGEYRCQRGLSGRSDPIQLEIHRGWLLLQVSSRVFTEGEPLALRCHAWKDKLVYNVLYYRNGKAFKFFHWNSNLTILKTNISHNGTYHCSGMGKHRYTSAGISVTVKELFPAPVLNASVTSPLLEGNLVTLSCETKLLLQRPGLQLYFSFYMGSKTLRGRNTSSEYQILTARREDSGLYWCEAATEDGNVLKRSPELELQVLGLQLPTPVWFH

[2] = target: T1, FcγRIIb extracellular domain with …; experiment: as above
FcγRIa = target: T3, FcγRIa (human, UniProt P12314 16-292); experiment: SPR (Biacore); He Ab relative to HeCon Ab = 100
T3 construct: extracellular domain; also called FcgRI; 1a
T3 sequence (P12314 16-292): as above
How it was run: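 Antibodies captured on antigen-peptide chips (CM5 amine-coupled or SA with biotinylated peptide), then each FcγR analyte, diluted in HBS-EP+, was injected at 25° C on Biacore T100. Surfaces regenerated with 10 mM glycine-HCl pH 1.5; binding expressed relative to the reference antibody.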

He/Con_1a [1] | He/Con_2b [2] | He/Con_1a (FcγRIa) | Binder
100 % of HeCon Ab (GpH7-A5/GpH7-B3/GpL16-k0 = 100) | 89.2 % of HeCon Ab (GpH7-A5/GpH7-B3/GpL16-k0 = 100) | – | B1
– | – | 102 % of control | B2
103 % of HeCon Ab (GpH7-A5/GpH7-B3/GpL16-k0 = 100) | 79.3 % of HeCon Ab (GpH7-A5/GpH7-B3/GpL16-k0 = 100) | – | B3
103 % of HeCon Ab (GpH7-A5/GpH7-B3/GpL16-k0 = 100) | 78.3 % of HeCon Ab (GpH7-A5/GpH7-B3/GpL16-k0 = 100) | – | B4
109 % of HeCon Ab (GpH7-A5/GpH7-B3/GpL16-k0 = 100) | 65.4 % of HeCon Ab (GpH7-A5/GpH7-B3/GpL16-k0 = 100) | – | B5
105 % of HeCon Ab (GpH7-A5/GpH7-B3/GpL16-k0 = 100) | 86.3 % of HeCon Ab (GpH7-A5/GpH7-B3/GpL16-k0 = 100) | – | B6
104 % of HeCon Ab (GpH7-A5/GpH7-B3/GpL16-k0 = 100) | 87.8 % of HeCon Ab (GpH7-A5/GpH7-B3/GpL16-k0 = 100) | – | B7
– | – | 103 % of control | B8
106 % of HeCon Ab (GpH7-A5/GpH7-B3/GpL16-k0 = 100) | 79.5 % of HeCon Ab (GpH7-A5/GpH7-B3/GpL16-k0 = 100) | – | B9
– | – | 100 % of control | B10
102 % of HeCon Ab (GpH7-A5/GpH7-B3/GpL16-k0 = 100) | 64.9 % of HeCon Ab (GpH7-A5/GpH7-B3/GpL16-k0 = 100) | – | B11
104 % of HeCon Ab (GpH7-A5/GpH7-B3/GpL16-k0 = 100) | 99.2 % of HeCon Ab (GpH7-A5/GpH7-B3/GpL16-k0 = 100) | – | B12
103 % of HeCon Ab (GpH7-A5/GpH7-B3/GpL16-k0 = 100) | 82 % of HeCon Ab (GpH7-A5/GpH7-B3/GpL16-k0 = 100) | – | B13
– | – | 102 % of control | B14
– | – | 102 % of control | B15
– | – | 101 % of control | B16
104 % of HeCon Ab (GpH7-A5/GpH7-B3/GpL16-k0 = 100) | 97.8 % of HeCon Ab (GpH7-A5/GpH7-B3/GpL16-k0 = 100) | – | B17
107 % of HeCon Ab (GpH7-A5/GpH7-B3/GpL16-k0 = 100) | 70.6 % of HeCon Ab (GpH7-A5/GpH7-B3/GpL16-k0 = 100) | – | B18
108 % of HeCon Ab (GpH7-A5/GpH7-B3/GpL16-k0 = 100) | 47.6 % of HeCon Ab (GpH7-A5/GpH7-B3/GpL16-k0 = 100) | – | B19
107 % of HeCon Ab (GpH7-A5/GpH7-B3/GpL16-k0 = 100) | 61.4 % of HeCon Ab (GpH7-A5/GpH7-B3/GpL16-k0 = 100) | – | B20
102 % of HeCon Ab (GpH7-A5/GpH7-B3/GpL16-k0 = 100) | 65.4 % of HeCon Ab (GpH7-A5/GpH7-B3/GpL16-k0 = 100) | – | B21
101 % of HeCon Ab (GpH7-A5/GpH7-B3/GpL16-k0 = 100) | 70.4 % of HeCon Ab (GpH7-A5/GpH7-B3/GpL16-k0 = 100) | – | B22
– | – | 102 % of control | B23
109 % of HeCon Ab (GpH7-A5/GpH7-B3/GpL16-k0 = 100) | 57.8 % of HeCon Ab (GpH7-A5/GpH7-B3/GpL16-k0 = 100) | – | B24
